The values that follow come from patent US20220064275A1 (SCHOLAR ROCK, published 2022).

One may read the Kd as the equilibrium constant for the complex coming apart.

Like-named read-outs stand apart in the source and are kept apart here.

Assay [1] addresses T1, murine LTBP3-proTGFβ1 complex (mouse, UniProt Q61810 41-1245; P04202 30-390, limits assumed).
T1 construct: also called mLTBP3-proTGFβ1
Briefly: MSD-SET, solution equilibrium titration; MSD-SET, Table 21, mouse complex.

In assay [2] the target is T2, human LTBP1-proTGFβ1 complex (human, UniProt Q14766 873-1507).
T2 construct: range 873-1507; biotinylated in Octet and MSD-SET; also called hLTBP1-proTGFβ1; hLTBP1
T2 sequence (Q14766 873-1507 limits assumed, chain 1 of 2): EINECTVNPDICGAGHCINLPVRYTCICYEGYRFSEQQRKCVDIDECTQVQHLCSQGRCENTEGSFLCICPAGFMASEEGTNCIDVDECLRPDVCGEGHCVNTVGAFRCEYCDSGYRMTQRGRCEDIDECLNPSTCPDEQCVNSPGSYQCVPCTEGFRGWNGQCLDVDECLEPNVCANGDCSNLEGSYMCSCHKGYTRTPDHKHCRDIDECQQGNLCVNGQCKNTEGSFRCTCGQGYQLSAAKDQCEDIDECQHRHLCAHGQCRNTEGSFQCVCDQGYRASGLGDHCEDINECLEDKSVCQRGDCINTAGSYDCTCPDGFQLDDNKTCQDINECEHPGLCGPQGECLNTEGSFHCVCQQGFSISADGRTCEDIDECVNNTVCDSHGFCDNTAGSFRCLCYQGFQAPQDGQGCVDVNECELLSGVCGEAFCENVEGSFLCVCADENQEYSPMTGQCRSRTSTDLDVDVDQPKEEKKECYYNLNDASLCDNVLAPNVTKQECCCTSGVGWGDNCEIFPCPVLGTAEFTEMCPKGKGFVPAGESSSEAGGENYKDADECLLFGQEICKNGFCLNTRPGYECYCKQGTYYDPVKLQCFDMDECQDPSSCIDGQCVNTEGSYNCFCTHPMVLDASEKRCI
T2 sequence (chain, as listed by the source limits assumed, chain 2 of 2): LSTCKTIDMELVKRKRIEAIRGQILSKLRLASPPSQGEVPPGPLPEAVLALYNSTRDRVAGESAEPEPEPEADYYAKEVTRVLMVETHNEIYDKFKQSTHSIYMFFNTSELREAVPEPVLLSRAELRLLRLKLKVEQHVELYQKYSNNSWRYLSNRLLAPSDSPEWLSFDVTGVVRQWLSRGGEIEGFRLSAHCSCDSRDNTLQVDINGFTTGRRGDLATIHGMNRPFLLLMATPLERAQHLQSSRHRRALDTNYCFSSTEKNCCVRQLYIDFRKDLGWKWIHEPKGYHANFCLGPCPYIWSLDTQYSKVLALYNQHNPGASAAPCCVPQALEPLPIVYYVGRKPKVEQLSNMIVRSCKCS
The assay can be described thus: MSD-SET, solution equilibrium titration. How it is done:
(§1) MSD-SET assays were performed to measure affinities of the antibodies at equilibrium. Briefly, each test antibody was diluted 3-5 fold and samples were mixed with biotinylated antigen in a 48-well dish. The SET samples were equilibrated for 20-24 hours at room temperature. Meanwhile, a capture plate was coated with IgG (20 nM) and incubated overnight at 4° C. or 30 minutes at room temperature, followed by a blocking step with 5% BSA. After the capture plate was washed three times, SET samples were added and incubated for 150 seconds. The plate was washed once to remove unbound complexes. 250 ng/ml SA-Sulfotag was added then washed 3 times. 2× Read Buffer was added, and signals from the labeled bound complexes were read with the use of QuickPlex™ SQ 120 instrument.
(§2) As an example, MSD standard plates (MSD) were coated with a 20 nM solution of monoclonal antibody in PBS for 30 min at room temperature or overnight at 4° C. […] After 20-24 hours of equilibration, the antibody-coated plate was blocked with Blocking Buffer A (MSD) for 30 minutes at room temperature and washed with wash buffer (PBS, 0.1% BSA, 0.05% Tween-20) before adding the equilibrated antibody-antigen complexes to the plate for exactly 2.5 minutes. The plate was washed again with wash buffer before adding 250 ng/ml SULFO-TAG-labeled streptavidin secondary reagent (MSD) in PBS with 0.1% BSA. After washing with wash buffer, plates were read in MSD read buffer (MSD) using the MESO QuickPlex SQ 120 (MSD). The binding data were processed by nonlinear curve fitting in Prism 7 software (Graphpad) to calculate equilibrium binding KD values.

Assay [3] concerns the target T3, human LRRC33-proTGFβ1 complex (human, UniProt Q86YC3 19-650; P01137 30-390).
T3 construct: also called hLRRC33-proTGFβ1; hLRRC33
Briefly: MSD-SET, solution equilibrium titration. How it is done:
as §1, §2

For assay [4], the target named is rat LRRC33-proTGFβ1 complex (rat, UniProt Q5BK65 25-650; P17246 30-390). Briefly: MSD-SET, solution equilibrium titration. How it is done:
as §1, §2

The target in assay [5] is T4, human LTBP3-proTGFβ1 complex (human, UniProt Q9NS15 866-1039).
T4 construct: range 866-1039; also called hLTBP3-proTGFβ1; hLTBP3
T4 sequence (Q9NS15 866-1039 limits assumed, chain 1 of 2): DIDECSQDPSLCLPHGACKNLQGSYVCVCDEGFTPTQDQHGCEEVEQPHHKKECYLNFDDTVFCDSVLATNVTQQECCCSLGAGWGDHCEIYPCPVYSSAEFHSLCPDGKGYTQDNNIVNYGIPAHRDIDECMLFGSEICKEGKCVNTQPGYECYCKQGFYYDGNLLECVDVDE
The assay can be described thus: MSD-SET, solution equilibrium titration. How it is done:
as §1, §2

Assay [6] has as its target T5, murine LTBP1-proTGFβ1 complex (mouse, UniProt Q8CG19 339-1712; P04202 30-390, limits assumed).
T5 construct: also called mLTBP1-proTGFβ1
The assay can be described thus: MSD-SET, solution equilibrium titration. How it is done: as §1, §2

Assay [7] addresses T6, murine GARP-proTGFβ1 complex (mouse, UniProt G3XA59 18-628; P04202 30-390).
T6 construct: Soluble murine complex; also called mGARP-proTGFβ1
The assay can be described thus: MSD-SET, solution equilibrium titration. How it is done: as §1, §2

The target of assay [8] is T7, cynomolgus LTBP1-proTGFβ1 complex (cynomolgus monkey).
T7 construct: also called Cyno LTBP1-proTGFβ1
T7 sequence (chain, as listed by the source limits assumed, chain 1 of 2): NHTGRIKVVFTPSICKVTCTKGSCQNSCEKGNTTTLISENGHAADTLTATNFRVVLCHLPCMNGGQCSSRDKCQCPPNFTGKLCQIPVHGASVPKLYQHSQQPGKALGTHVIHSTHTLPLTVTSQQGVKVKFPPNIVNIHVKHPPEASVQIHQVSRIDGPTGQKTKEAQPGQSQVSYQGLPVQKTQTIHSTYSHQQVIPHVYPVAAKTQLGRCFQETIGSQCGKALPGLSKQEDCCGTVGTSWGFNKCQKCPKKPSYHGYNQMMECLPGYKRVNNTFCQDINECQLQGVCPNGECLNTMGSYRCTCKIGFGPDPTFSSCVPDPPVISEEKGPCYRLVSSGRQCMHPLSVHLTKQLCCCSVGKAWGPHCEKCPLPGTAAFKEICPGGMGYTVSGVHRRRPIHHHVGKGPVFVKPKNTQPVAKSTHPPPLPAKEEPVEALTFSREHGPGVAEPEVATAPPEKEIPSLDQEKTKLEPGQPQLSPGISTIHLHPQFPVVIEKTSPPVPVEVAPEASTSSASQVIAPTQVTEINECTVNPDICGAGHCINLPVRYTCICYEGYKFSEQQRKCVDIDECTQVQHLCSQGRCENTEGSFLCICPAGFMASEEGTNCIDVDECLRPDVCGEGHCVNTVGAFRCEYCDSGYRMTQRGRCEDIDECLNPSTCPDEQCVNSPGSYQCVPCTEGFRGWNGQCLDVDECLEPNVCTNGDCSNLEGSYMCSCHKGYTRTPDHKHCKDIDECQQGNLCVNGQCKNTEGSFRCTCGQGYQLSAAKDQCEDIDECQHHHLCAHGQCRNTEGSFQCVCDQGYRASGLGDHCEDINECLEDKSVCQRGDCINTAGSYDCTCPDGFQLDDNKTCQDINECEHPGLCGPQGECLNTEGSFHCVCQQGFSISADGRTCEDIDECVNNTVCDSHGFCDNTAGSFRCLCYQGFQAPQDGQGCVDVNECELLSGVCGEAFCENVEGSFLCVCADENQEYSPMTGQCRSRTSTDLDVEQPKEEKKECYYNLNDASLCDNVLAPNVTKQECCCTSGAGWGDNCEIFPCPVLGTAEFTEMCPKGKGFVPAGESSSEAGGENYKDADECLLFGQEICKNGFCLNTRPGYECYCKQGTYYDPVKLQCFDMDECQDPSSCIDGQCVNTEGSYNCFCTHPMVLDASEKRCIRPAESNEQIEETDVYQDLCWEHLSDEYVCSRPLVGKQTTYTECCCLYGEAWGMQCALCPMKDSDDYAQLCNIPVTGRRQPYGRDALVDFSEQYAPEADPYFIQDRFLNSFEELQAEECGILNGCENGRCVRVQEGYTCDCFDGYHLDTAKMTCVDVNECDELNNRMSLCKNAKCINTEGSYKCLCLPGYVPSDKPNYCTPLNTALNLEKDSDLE
T7 sequence (chain, as listed by the source limits assumed, chain 2 of 2): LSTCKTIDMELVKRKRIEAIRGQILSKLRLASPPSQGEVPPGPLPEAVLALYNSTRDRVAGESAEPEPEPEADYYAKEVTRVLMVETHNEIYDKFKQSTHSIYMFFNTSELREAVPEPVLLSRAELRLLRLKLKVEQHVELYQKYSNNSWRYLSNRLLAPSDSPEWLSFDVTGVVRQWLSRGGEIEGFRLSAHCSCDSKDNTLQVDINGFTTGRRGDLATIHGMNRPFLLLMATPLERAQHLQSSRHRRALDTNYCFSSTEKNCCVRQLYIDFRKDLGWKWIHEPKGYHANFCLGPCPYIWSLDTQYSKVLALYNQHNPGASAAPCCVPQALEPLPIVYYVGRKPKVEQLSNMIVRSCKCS
The assay can be described thus: MSD-SET, solution equilibrium titration. How it is done:
as §1, §2

Assay [9] addresses T8, murine LRRC33-proTGFβ1 complex (mouse, UniProt Q8BMT4 20-651, limits assumed).
T8 construct: also called mLRRC33-proTGFβ1
The assay can be described thus: MSD-SET, solution equilibrium titration. How it is done: as §1, §2

Assay [10] addresses rat LTBP1-proTGFβ1 complex (rat, UniProt Q00918 339-1712; P17246 30-390). The assay can be described thus: MSD-SET, solution equilibrium titration. How it is done:
as §1, §2

In assay [11] the target is T9, human GARP-proTGFβ1 complex (human, UniProt Q14392 20-627; P01137 30-390).
T9 construct: also called hGARP-proTGFβ1; hGARP
T9 sequence (Q14392 20-627, chain 1 of 2): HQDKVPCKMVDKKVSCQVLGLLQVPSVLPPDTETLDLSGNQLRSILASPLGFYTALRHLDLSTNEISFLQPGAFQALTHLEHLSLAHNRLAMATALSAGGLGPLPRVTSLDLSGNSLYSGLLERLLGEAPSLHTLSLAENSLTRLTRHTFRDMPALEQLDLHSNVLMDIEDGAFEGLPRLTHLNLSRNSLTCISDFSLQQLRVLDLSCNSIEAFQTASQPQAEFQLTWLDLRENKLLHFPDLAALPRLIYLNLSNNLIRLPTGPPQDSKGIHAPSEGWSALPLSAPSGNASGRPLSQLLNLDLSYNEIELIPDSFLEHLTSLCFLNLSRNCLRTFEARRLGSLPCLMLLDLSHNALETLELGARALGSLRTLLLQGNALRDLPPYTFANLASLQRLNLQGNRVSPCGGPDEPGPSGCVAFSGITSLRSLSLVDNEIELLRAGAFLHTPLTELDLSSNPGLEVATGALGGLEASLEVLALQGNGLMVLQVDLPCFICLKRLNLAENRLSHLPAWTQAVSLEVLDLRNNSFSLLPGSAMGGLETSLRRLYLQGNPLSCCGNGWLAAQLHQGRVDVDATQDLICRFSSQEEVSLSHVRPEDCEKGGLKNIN
The assay can be described thus: MSD-SET solution equilibrium titration; Ab6 titrated against biotinylated hGARP-proTGFβ1, readout % free antigen. How it is done:
as §1
(§3) As an example, MSD standard plates (MSD) were coated with a 20 nM solution of monoclonal antibody in PBS for 30 min at room temperature or overnight at 4° C. […] After 20-24 hours of equilibration, the antibody-coated plate was blocked with Blocking Buffer A (MSD) for 30 minutes at room temperature and washed with wash buffer (PBS, 0.1% BSA, 0.05% Tween-20) before adding the equilibrated antibody-antigen complexes to the plate for exactly 2.5 minutes. […] After washing with wash buffer, plates were read in MSD read buffer (MSD) using the MESO QuickPlex SQ 120 (MSD). […]

The target of assay [12] is T2, human LTBP1-proTGFβ1 complex. The assay can be described thus: MSD-SET, solution equilibrium titration. This is another data set of the same source.
In assay [13] the target is T3, human LRRC33-proTGFβ1 complex. Briefly: MSD-SET, solution equilibrium titration. The source holds these as a separate data set.
Assay [14] deals with T4, human LTBP3-proTGFβ1 complex. The assay can be described thus: MSD-SET, solution equilibrium titration. This is another data set of the same source.
Assay [15] deals with T9, human GARP-proTGFβ1 complex. The assay can be described thus: MSD-SET, solution equilibrium titration.
Assay [16] concerns the target T2, human LTBP1-proTGFβ1 complex. Briefly: MSD-SET solution equilibrium titration; Ab6 titrated against biotinylated hLTBP1-proTGFβ1, readout % free antigen. How it is done:
as §1, §3

The target of assay [17] is hLTBP1-proTGFβ1 complex made by transfected cells (cell-based potency assay) (human, UniProt Q14766 347-1721; P01137 30-390). Briefly: cell-based or functional assay.
The target in assay [18] is hGARP-proTGFβ1 complex on cells (human, UniProt Q14392 20-662; P01137 30-390). The assay can be described thus: cell-based or functional assay.
Assay [19] has as its target hLRRC33-proTGFβ1 complex on cells (human, UniProt Q86YC3 19-692; P01137 30-390). The assay can be described thus: cell-based or functional assay.
In assay [20] the target is hLTBP3-proTGFβ1 complex made by transfected cells (cell-based potency assay) (human, UniProt Q9NS15 44-1303; P01137 30-390). The assay can be described thus: cell-based or functional assay.
Assay [21] concerns the target T3, human LRRC33-proTGFβ1 complex. The assay can be described thus: MSD-SET solution equilibrium titration; Ab6 titrated against biotinylated hLRRC33-proTGFβ1, readout % free antigen. How it is done:
as §1, §3

The target of assay [22] is T10, human mature TGFβ1 growth factor (human, UniProt P01137 279-390).
T10 construct: Bought from R&D Systems; also called active (mature) TGFβ1 growth factor; free TGFβ1 growth factor
The assay can be described thus: in vitro binding assay.

T3 sequence (Q86YC3 other isoform, or with tags, fused parts or gaps limits assumed, chain 1 of 2): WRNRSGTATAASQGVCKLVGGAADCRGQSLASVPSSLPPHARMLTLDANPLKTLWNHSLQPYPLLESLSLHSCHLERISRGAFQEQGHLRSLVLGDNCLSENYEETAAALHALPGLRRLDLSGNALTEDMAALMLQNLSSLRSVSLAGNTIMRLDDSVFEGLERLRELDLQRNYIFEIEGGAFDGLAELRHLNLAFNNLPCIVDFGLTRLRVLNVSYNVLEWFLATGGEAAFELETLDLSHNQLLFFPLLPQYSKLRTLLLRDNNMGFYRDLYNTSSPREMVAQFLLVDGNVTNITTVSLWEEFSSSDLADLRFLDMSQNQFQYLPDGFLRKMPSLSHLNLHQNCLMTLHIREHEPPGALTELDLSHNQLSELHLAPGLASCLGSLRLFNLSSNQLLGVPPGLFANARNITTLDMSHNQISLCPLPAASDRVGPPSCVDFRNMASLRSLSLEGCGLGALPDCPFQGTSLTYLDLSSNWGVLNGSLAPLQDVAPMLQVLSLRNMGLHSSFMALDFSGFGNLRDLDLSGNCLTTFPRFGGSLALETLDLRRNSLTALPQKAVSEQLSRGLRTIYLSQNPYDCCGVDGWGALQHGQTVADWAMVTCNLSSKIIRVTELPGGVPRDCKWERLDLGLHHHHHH
T8 sequence (Q8BMT4 20-651 limits assumed, chain 1 of 2): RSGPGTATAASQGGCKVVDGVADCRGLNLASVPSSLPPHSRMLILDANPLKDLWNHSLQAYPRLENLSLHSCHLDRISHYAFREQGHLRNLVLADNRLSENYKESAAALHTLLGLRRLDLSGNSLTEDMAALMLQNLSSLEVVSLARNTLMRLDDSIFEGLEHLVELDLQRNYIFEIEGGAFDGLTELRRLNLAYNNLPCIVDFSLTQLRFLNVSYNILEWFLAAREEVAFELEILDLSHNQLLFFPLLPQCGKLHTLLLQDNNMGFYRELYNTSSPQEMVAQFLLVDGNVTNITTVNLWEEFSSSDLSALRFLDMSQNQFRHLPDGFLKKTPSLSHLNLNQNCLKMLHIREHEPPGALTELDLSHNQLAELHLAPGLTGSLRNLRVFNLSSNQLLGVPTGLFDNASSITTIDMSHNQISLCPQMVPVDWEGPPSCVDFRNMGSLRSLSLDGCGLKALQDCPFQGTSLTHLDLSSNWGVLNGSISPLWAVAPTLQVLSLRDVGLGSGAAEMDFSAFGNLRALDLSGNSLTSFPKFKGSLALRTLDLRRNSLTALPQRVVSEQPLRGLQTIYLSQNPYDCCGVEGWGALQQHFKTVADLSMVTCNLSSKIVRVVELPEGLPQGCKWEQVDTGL
T8 sequence (chain, as listed by the source limits assumed, chain 2 of 2): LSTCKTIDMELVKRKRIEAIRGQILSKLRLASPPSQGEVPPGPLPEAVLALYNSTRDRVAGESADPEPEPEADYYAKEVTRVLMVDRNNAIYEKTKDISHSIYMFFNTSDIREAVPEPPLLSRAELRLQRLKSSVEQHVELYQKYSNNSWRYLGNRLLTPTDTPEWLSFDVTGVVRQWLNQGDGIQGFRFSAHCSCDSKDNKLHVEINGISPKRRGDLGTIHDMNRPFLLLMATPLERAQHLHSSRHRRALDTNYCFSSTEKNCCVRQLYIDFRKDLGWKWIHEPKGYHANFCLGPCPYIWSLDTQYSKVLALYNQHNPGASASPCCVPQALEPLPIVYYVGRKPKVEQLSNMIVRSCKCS

B1: Ab6 (antibody, human IgG4 S228P, kappa, V domains shown)
VH: EVQLVESGGGLVQPGGSLRLSCTASGFTFSSFSMDWVRQAPGKGLEWVSYISPSADTIYYADSVKGRFTISRDNAKNTLYLQMNSLRAEDTAVYYCARGVLDYGDMLMPWGQGTLVTVSS
VL: DIQMTQSPSSLSASVGDRVTITCQASQDITNYLNWYQQKPGKAPKLLIYDASNLETGVPSRFSGSGSGTDFTFTISSLQPEDIATYYCQQADNHPPWTFGGGTKVEIKR
Take B1: the Kd in [1] was found to be 0.022 nM; in assay [2], 0.018 nM; in assay [3], 0.063 nM; in assay [4], 0.086 nM; in assay [5], 0.029 nM; in assay [6] it was 0.024 nM. Further, the Kd in assay [7] came out at 0.021 nM; in assay [8] it was 0.039 nM; in assay [9], 0.048 nM; in [10], 0.035 nM; in [12], 0.018 nM; in assay [13], 0.063 nM. Also, the values for the Kd in assay [14] and in assay [15] were 0.029 nM and 0.027 nM, respectively. In addition, the “IC50 (read off the curve)” value in assay [11] was around 0.03 nM; in assay [16] it was around 0.02 nM; in assay [21] it was around 0.07 nM. The “IC50, reporter cell assay of TGFβ1 activation” value in assay [17] is 2.74 nM; in assay [18], 0.324 nM; in [19] it was 0.495 nM; in assay [20], 0.821 nM. In addition, in assay [22], the binding result is recorded as “no binding”.
